Results from US6582899B1, “Methods for identifying agents that cause a lethal phenotype, and agents thereof” (Deltagen Proteomics, Inc., priority 2000, dated 2003).

How the values were obtained:
[1] = tested on: HT29 colon cancer cells; assay: HT29 floater assay (negative selection); type: cell-based; details: individual clone reintroduced into HT29 cells
Method: HT29 cells were tested for feasibility in the floater cell assay as follows. Briefly, six flasks were inoculated with 6.25×10^5 HT29 cells/flask on Day 0. On Day 1, after the cells had been allowed to adhere to the solid support, two of these flasks were infected with retroviral supernatant containing the retroviral vector pVT324, which includes a selectable drug resistant marker (e.g. neomycin), and which constitutively expresses a green fluorescent protein. Of the remaining four flasks, two were mock infected (i.e. exposed to all of the same reagents/conditions as flasks 1 and 2, minus the retrovirus, see “Example 3C”) and two were left undisturbed. On Day 2, this procedure was repeated (i.e. a double infection). On Day 3 (and subsequently on Day 5) one flask was selected from each of the three groups and processed by separating and counting the floater and adherent cell populations. In the case of the floater cell population, the media was collected, centrifuged at 200×g for 10 minutes, and resuspended in PBS prior to removing a sample for counting on a hemocytometer. For the adherent cell population, cells were first removed from the flask by trypsinization, centrifuged, and then processed for analysis in a fashion analogous to the floater cells. To determine the inherent background level of floater cells present in the population, the ratio of the number of floater cells to the total number of cells (adherent cells+floater cells) was analyzed on both the Day 3 and Day 5 flasks that had not been manipulated. These numbers were compared with the analogous numbers taken from infected and mock-infected flasks to determine whether the retrovirus or transfection procedures altered background floater rates. To determine the susceptibility of HT29 cells to retroviral infection, the fraction of cells that expressed GFP in pVT324 infected flasks was calculated using flow cytometry.
Twenty T175 flasks were seeded with 2.2×10^6 HT29 cells/flask in McCoy's 5A media (Gibco BRL) modified with 10% FBS. On Day 1, each flask was infected (4 μg/ml polybrene, 50% volume) with a retroviral supernatant containing a commercially obtained brain cDNA library (“Example Three” above). On Day 2 the media was changed. On Day 3 both the floater and adherent cell populations were collected (separately) from the twenty flasks. Approximately 652,500 floaters were isolated from a theoretical background of 4.2×10^7 adherents (1.5% floaters) and frozen down for future studies. […] Additional floater cells were then collected Day 5, where the collection and counting procedures were repeated and some 7.8×10^6 floaters and 7.6×10^8 adherents were counted (1.03% floaters). […] The floater populations of Days 3 and 5 were then combined and readied for a genomic DNA prep using a QIAamp kit (Qiagen) following standard procedures. Briefly, some 9×10^6 floater cells in PBS were lysed to release gDNA. This material was passed over a QIAamp column that was then washed several times to remove protein and RNA contaminants. Twenty-seven micrograms of genomic DNA were then eluted from the columns with dH2O and treated with RNAse A to eliminate any RNA contamination. This gDNA was then subjected to PCR procedures to amplify the library sequences encoded therein. […]

[2] = tested on: HuVECs (Human Umbilical Vein Endothelial Cells); assay: Cell viability of HuVECs after introduction of clone; type: cell-based; details: 16 hour time point
Excerpt: In addition to cycling these library sequences (obtained as described above) through an additional round of negative selections, 50 clones were taken from each of the Cycle 5, day five pools for sequence analysis. […] Both of the BID clones obtained from these negative selections encode N-terminal truncations of the native protein (BID Clone #1 encodes amino acids 33-195, BID Clone #2 encodes amino acids 76-195, See FIG. 9). BID clone #1 was reintroduced into fresh, naive HT29 cells and floater rates were compared with cells that had been mock infected or infected with the control vector, pVT324. […] In a similar experiment, BID clone #1 was introduced into HuVECs (Human Umbilical Vein Endothelial Cells, Clonetics/Biowhittaker) and cell viability was followed over the course of 16 hours. While control cells gave a background of 1% cell death at the 16 hour time point, 80% of the cells in the BID clone #1-infected culture died during the same period of time.

B1: BID clone #1: N-terminal truncation of BID (BH3 Interacting Domain Death Agonist), encodes amino acids 33-195 (protein, UniProt P55957 33-195, looked up, fragment)
chain: FRRELDALGHELPVLAPQWEGYDELQTDGNRSSHSRLGRIEADSESQEDIIRNIARHLAQVGDSMDRSIPPGLVNGLALQLRNTSRSEEDRNRDLATALEQLLQAYPRDMEKEKTMLVLALLLAKKVASHTPSLLRDVFHTTVNFINQNLRTYVRSLARNGMD
floater rate [1]: roughly 18% | cells that died [2]: 80%
